The results in this text go back to article PMC6911355.

Series [1] deals with TDP-43 1-260 (NTD-RRM1-RRM2) (human, UniProt Q13148 1-260). Nature of the series: ALPHA.
Series [2] concerns the target TDP-43 102-269 (RRM1-RRM2) (human, UniProt Q13148 102-269). Kind of series: ALPHA.

TDP-43 1-260 (NTD-RRM1-RRM2), sequence (Q13148 1-260): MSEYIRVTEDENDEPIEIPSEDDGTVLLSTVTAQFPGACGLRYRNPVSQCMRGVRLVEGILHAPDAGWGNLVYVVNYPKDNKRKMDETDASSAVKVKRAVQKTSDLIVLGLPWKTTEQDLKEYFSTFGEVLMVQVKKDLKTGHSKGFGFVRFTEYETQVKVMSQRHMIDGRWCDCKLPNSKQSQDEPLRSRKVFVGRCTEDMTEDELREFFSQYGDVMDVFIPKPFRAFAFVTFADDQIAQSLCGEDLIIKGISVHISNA
TDP-43 102-269 (RRM1-RRM2), sequence (Q13148 102-269): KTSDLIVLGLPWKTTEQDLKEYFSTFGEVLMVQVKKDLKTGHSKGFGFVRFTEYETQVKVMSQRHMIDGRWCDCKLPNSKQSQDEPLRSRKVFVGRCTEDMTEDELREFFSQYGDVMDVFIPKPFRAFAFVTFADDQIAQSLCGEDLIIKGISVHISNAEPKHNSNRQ

The term Kd denotes the equilibrium constant for the complex coming apart. Higher therefore signals a looser complex. On to UGUGUGUGUGUG (ssRNA) [(UG)6], for which the Kd in series [1] was determined as 400 ± 40 pM; in series [2], 730 ± 100 pM.
